Four sequences from the supplement of paper PMC5998384 can be followed below.

Data set [1] concerns HeLa Kyoto. The experiment in a line: solubility in G1/S (NP-40 vs SDS abundance) (log2 ratio); higher = more soluble. The following applies: cell cycle stage: G1/S.
For data set [2], the system named is HeLa Kyoto. Put plainly: melting temperature (median over replicates), in situ; higher = more thermally stable.
In data set [3] the test system is HeLa Kyoto. Put plainly: solubility change mitosis vs G1/S (difference of NP-40 vs SDS log2 ratios) (log2 ratio difference); higher = more soluble in mitosis.
Data set [4] concerns HeLa Kyoto. Put plainly: thermal stability score vs G1/S (z-score of summed log2 fold changes over temperatures); higher = more thermally stable than in G1/S.
Where [5] appears, read: cell cycle stage: early G1 (4.5 h after nocodazole release).
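Throughout, for melting temperature (median over replicates), in situ: HeLa Kyoto cells synchronized by double thymidine or nocodazole block, proteins quantified by TMT10plex mass spectrometry, three independent biological replicates.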
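Throughout, for solubility change mitosis vs G1/S (difference of NP-40 vs SDS log2 ratios): synchronized HeLa Kyoto cells (double thymidine block for G1/S, nocodazole release for mitosis), protein amounts in NP-40 versus SDS lysates quantified by mass spectrometry, three biological replicates.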
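Throughout, for solubility in G1/S (NP-40 vs SDS abundance): HeLa Kyoto cells arrested at G1/S by double thymidine block, proteins quantified by TMT10plex mass spectrometry in mild NP-40 versus SDS extracts, three biological replicates.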
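Throughout, for thermal stability score vs G1/S (z-score of summed log2 fold changes over temperatures): synchronized HeLa Kyoto cells, proteins quantified by TMT10plex mass spectrometry, three biological replicates, mitosis taken 0.5 h after nocodazole release, G1/S directly after double thymidine block.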

“MAAAAASHLNLDALREVLECPICMESFTEEQLRPKLLHCGHTICRQCLEKLLASSINGVRCPFCSKITRITSLTQLTDNLTVLKIIDTAGLSEAVGLLMCRSCGRRLPRQFCRSCGLVLCEPCREADHQPPGHCTLPVKEAAEERRRDFGEKLTRLRELMGELQRRKAALEGVSKDLQARYKAVLQEYGHEERRVQDELARSRKFFTGSLAEVEKSNSQVVEEQSYLLNIAEVQAVSRCDYFLAKIKQADVALLEETADEEEPELTASLPRELTLQDVELLKVGHVGPLQIGQAVKKPRTVNVEDSWAMEATASAASTSVTFREMDMSPEEVVASPRASPAKQRGPEAASNIQQCLFLKKMGAKGSTPGMFNLPVSLYVTSQGEVLVADRGNYRIQVFTRKGFLKEIRRSPSGIDSFVLSFLGADLPNLTPLSVAMNCQGLIGVTDSYDNSLKVYTLDGHCVACHRSQLSKPWGITALPSGQFVVTDVEGGKLWCFTVDRGSGVVKYSCLCSAVRPKFVTCDAEGTVYFTQGLGLNLENRQNEHHLEGGFSIGSVGPDGQLGRQISHFFSENEDFRCIAGMCVDARGDLIVADSSRKEILHFPKGGGYSVLIREGLTCPVGIALTPKGQLLVLDCWDHCIKIYSYHLRRYSTP [TRIM32]”: in the data set on HeLa Kyoto [1], the “solubility in G1/S (log2)” value was -0.286. The results for the melting temperature with HeLa Kyoto [2] (cell cycle stage: G1/S) and with HeLa Kyoto [2] (cell cycle stage: mitosis) were 51.8 °C and 52.2 °C, respectively. The “solubility change mitosis (log2)” value in the data set with HeLa Kyoto [3] amounted to 0.0329. In addition, the results for the thermal stability score in the data set on HeLa Kyoto [4] (setting [5]) and in the data set with HeLa Kyoto [4] (cell cycle stage: mitosis) were 0.931 and 0.623, respectively.
On to “MAAALFVLLGFALLGTHGASGAAGFVQAPLSQQRWVGGSVELHCEAVGSPVPEIQWWFEGQGPNDTCSQLWDGARLDRVHIHATYHQHAASTISIDTLVEEDTGTYECRASNDPDRNHLTRAPRVKWVRAQAVVLVLEPGTVFTTVEDLGSKILLTCSLNDSATEVTGHRWLKGGVVLKEDALPGQKTEFKVDSDDQWGEYSCVFLPEPMGTANIQLHGPPRVKAVKSSEHINEGETAMLVCKSESVPPVTDWAWYKITDSEDKALMNGSESRFFVSSSQGRSELHIENLNMEADPGQYRCNGTSSKGSDQAIITLRVRSHLAALWPFLGIVAEVLVLVTIIFIYEKRRKPEDVLDDDDAGSAPLKSSGQHQNDKGKNVRQRNSS [BSG]”, for which the “solubility in G1/S (log2)” value with HeLa Kyoto [1] came out at 0.205. Besides, the melting temperature in the data set on HeLa Kyoto [2] (cell cycle stage: G1/S) was found to be 59.1 °C; in the data set on HeLa Kyoto [2] (cell cycle stage: mitosis) it was 59.8 °C. In addition, the “solubility change mitosis (log2)” value in the data set on HeLa Kyoto [3] was -0.00749. Moreover, the thermal stability score with HeLa Kyoto [4] (setting [5]) is -0.849; in the data set with HeLa Kyoto [4] (cell cycle stage: mitosis), -2.75.
Turning to “MVLGPEQKMSDDSVSGDHGESASLGNINPAYSNPSLSQSPGDSEEYFATYFNEKISIPEEEYSCFSFRKLWAFTGPGFLMSIAYLDPGNIESDLQSGAVAGFKLLWILLLATLVGLLLQRLAARLGVVTGLHLAEVCHRQYPKVPRVILWLMVELAIIGSDMQEVIGSAIAINLLSVGRIPLWGGVLITIADTFVFLFLDKYGLRKLEAFFGFLITIMALTFGYEYVTVKPSQSQVLKGMFVPSCSGCRTPQIEQAVGIVGAVIMPHNMYLHSALVKSRQVNRNNKQEVREANKYFFIESCIALFVSFIINVFVVSVFAEAFFGKTNEQVVEVCTNTSSPHAGLFPKDNSTLAVDIYKGGVVLGCYFGPAALYIWAVGILAAGQSSTMTGTYSGQFVMEGFLNLKWSRFARVVLTRSIAIIPTLLVAVFQDVEHLTGMNDFLNVLQSLQLPFALIPILTFTSLRPVMSDFANGLGWRIAGGILVLIICSINMYFVVVYVRDLGHVALYVVAAVVSVAYLGFVFYLGWQCLIALGMSFLDCGHTCHLGLTAQPELYLLNTMDADSLVSR [SLC11A2]”, in the data set with HeLa Kyoto [1], the “solubility in G1/S (log2)” value is -0.142. For the same sequence, the figures for the melting temperature in the data set with HeLa Kyoto [2] (cell cycle stage: G1/S) and in the data set with HeLa Kyoto [2] (cell cycle stage: mitosis) were 58.8 °C and 57.6 °C, respectively. For the same sequence, in the data set on HeLa Kyoto [3], the “solubility change mitosis (log2)” value is -0.211. In addition, the figures for the thermal stability score with HeLa Kyoto [4] (setting [5]) and in the data set with HeLa Kyoto [4] (cell cycle stage: mitosis) were 2.43 and -0.114, respectively.
As to “MSEWMKKGPLEWQDYIYKEVRVTASEKNEYKGWVLTTDPVSANIVLVNFLEDGSMSVTGIMGHAVQTVETMNEGDHRVREKLMHLFTSGDCKAYSPEDLEERKNSLKKWLEKNHIPITEQGDAPRTLCVAGVLTIDPPYGPENCSSSNEIILSRVQDLIEGHLTASQ [GEMIN6]”, the “solubility in G1/S (log2)” value with HeLa Kyoto [1] is 0.271. The melting temperature in the data set with HeLa Kyoto [2] (cell cycle stage: G1/S) stood at 53.6 °C; in the data set with HeLa Kyoto [2] (cell cycle stage: mitosis) it was 52.3 °C. Besides, the “solubility change mitosis (log2)” value with HeLa Kyoto [3] worked out at 0.0835. The thermal stability score is -0.4 with HeLa Kyoto [4] (setting [5]) and -2.06 with HeLa Kyoto [4] (cell cycle stage: mitosis).
